Source: PMC7527217 (Science Advances, 2020)
Where two headings read alike, the source gives them in different places.

Columns and labels:
[1] = target: recombinant trBcl-2L1 (Trichoplax adhaerens Bcl-2-like protein 1), lacking the 33 N-terminal and 29 C-terminal residues (Trichoplax adhaerens); test: ITC
[2] = target: recombinant trBcl-2L2 (Trichoplax adhaerens Bcl-2-like protein 2), lacking the 7 N-terminal and 34 C-terminal residues (Trichoplax adhaerens); test: ITC
[3] = target: T1, recombinant human Bcl-w (residues 9 to 152) (human, UniProt Q92843 9-152); test: ITC
T1 sequence (looked up): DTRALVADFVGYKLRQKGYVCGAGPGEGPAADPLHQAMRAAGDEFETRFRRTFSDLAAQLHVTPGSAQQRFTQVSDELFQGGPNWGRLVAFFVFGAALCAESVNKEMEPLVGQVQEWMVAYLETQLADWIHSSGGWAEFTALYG

[4] = target: recombinant human Bcl-xL (residues 1 to 209, Δloop45 to 84) (human, UniProt Q07817-1 1-209, Δloop45 to 84); test: ITC
[5] = target: recombinant human Mcl-1 (residues 171 to 320) (human, UniProt Q07820 171-320); test: ITC
[6] = target: T2, recombinant human A1/Bfl-1 (residues 1 to 151) (human, UniProt Q16548 1-151); test: ITC
T2 sequence (looked up): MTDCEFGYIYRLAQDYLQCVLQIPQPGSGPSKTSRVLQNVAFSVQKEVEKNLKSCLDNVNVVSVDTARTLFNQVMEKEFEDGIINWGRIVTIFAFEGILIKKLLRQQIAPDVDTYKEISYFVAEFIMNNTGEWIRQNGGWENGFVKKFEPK

[7] = target: recombinant human Bcl-2 (residues 10 to 203) (human, UniProt P10415 10-203); test: ITC
[8] = target: recombinant trBcl-2L1 (Trichoplax adhaerens Bcl-2-like protein 1), lacking the 33 N-terminal and 29 C-terminal residues (Trichoplax adhaerens); test: ITC; remark: listed apart in the source
[9] = target: recombinant trBcl-2L2 (Trichoplax adhaerens Bcl-2-like protein 2), lacking the 7 N-terminal and 34 C-terminal residues (Trichoplax adhaerens); test: ITC; remark: listed apart in the source
Flag-tagged trBcl-2L2 = target: T3, Flag-tagged trBcl-2L2 (Trichoplax adhaerens, UniProt A0A1B1IJN9 1-211); test: FRET or BRET
T3 sequence (looked up): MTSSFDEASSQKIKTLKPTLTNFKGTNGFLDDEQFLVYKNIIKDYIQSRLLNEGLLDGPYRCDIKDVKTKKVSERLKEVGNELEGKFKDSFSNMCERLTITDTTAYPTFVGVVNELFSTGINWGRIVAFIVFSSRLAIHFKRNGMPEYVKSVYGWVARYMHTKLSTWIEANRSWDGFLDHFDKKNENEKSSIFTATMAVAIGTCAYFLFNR

Flag-tagged trBcl-2L1 = target: T4, Flag-tagged trBcl-2L1 (Trichoplax adhaerens, UniProt A0A1B1IJP0 1-215); test: FRET or BRET
T4 sequence (looked up): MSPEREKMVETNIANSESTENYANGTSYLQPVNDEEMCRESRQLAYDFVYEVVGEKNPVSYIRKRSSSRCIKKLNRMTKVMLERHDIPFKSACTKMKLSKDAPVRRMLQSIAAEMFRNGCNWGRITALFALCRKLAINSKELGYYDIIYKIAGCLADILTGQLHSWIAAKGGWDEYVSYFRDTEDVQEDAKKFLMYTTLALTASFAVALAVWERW

Chain of recombinant human Mcl-1 (residues 171 to 320) (Q07820 171-320): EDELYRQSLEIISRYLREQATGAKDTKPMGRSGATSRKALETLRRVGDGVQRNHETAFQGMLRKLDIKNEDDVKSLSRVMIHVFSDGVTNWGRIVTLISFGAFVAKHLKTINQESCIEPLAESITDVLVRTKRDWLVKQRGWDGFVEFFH
Chain of recombinant human Bcl-2 (residues 10 to 203) (P10415 10-203): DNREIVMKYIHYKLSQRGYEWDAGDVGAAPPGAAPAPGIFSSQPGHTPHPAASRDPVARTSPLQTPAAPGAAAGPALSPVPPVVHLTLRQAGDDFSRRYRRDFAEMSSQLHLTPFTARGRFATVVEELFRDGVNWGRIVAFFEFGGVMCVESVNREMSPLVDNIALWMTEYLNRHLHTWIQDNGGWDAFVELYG

In the case of hsBax BH3 peptide, the Kd [1] is reported as 7 nM and the Kd [2] is reported as 15 nM.

Molecule hsBid BH3 peptide has a Kd [1] of 124 nM and a Kd [2] of 170 nM.

hsPuma BH3 peptide showed a Kd [1] of 5 nM and a Kd [2] of 81 nM.

hsBim BH3 peptide was tested, and the Kd [1] was 83 nM and the Kd [2] was 41 nM.

B1: trBax BH3 peptide (peptide)
peptide: IEPTSPTIQVARTIRQIGDELDSDPHLN
Molecule B1 has a Kd [3] of 767 nM, a Kd [4] of 877 nM and a Kd [5] of 67 nM. It also gave a Kd [6] of 135 nM, a Kd [7] of 3060 nM and a Kd [8] of 426 nM. For the same molecule, the Kd [9] was 728 nM.

B2: EGFP-tagged trBax (natural protein, Trichoplax adhaerens, UniProt A0A1B1IJP1 1-241, looked up)
chain: MADFTYVLITRSISTIFSSSCLIAMAHVKSVTSTPTTTTTTTTQSCPRREENLKEIAAESKKLFLDFIADRSAKDGQDQGCISQLTREHNELQIEPTSPTIQVARTIRQIGDELDSDPHLNGLLHKLHVTSSTAYSTFRRVAMRIFQDGQFNWGRIITLFFFGYRLTIRVLSESPIVEMIISWIARFIYEICSFWIAESGGWDAITQYIQQADWKNKYTLGLIAVGVLVTAFVTWQRYNSS
B2 gave an FRET efficacy (Flag-tagged trBcl-2L2) of 2.81% and an FRET efficacy (Flag-tagged trBcl-2L1) of 5.84%.

B3: EGFP-tagged trBak (natural protein, Trichoplax adhaerens, UniProt A0A1B1IJN7 1-251, looked up)
chain: MSSTITIAESLENGENNDEQEEANTSRSQFRVTRAQVIRRQLSANPAHLPVSEQEVINETSSIFRSFVVESYQAERDGGIIAEEVRSFADQVQSSSNQTITPSSPTSEIGRHLAQLGDSYSVRFQNEFRLMITHLDINPGTAYRTFAGVARRLFRDGISWRRIVTLMAFGYQIAIDVMRSGVQGFLSRICNFIVRFISGEHIANWIARQGGWRAARYEGLASPGWPAIIGVATAAAASVFGVLWLSGYFRE
With B3 the FRET efficacy (Flag-tagged trBcl-2L2) was 5.45% and the FRET efficacy (Flag-tagged trBcl-2L1) was 11.2%.

B4: trBak BH3 peptide (peptide)
peptide: PSSPTSEIGRHLAQLGDSYSVRFQNE
B4 was tested, and the binding result [3] was “binds”, the Kd [4] was 197 nM and the binding result [5] was “binds”. For the same molecule, the Kd [6] was 13 nM, the Kd [7] was 45 nM and the Kd [8] was 1430 nM. It also gave a Kd [9] of 563 nM.
